According to publication PMC4546403:

Tests used:
[1] = immunofluorescence, Hh-induced plasma membrane vs ER marker, Cl8; conditions: glycan lost; control: wild type dSmo
[2] = EndoH-resistant post-ER vs EndoH-sensitive ER fraction, western; conditions: glycan lost; control: wild type dSmo
[3] = biotin-maleimide free-thiol labelling, NeutrAvidin capture (disulfide integrity); conditions: glycan lost; control: wild type dSmo
[4] = western blot of Cl8 cell lysates; conditions: glycan lost; control: wild type dSmo
[5] = western blot of wing imaginal disc lysates; conditions: glycan lost; control: wild type dSmo transgene

Protein	localisation_or_trafficking [1]	localisation_or_trafficking [2]	stability_or_folding [3]	expression_or_secretion [4]	expression_or_secretion [5]
Drosophila Smo (dSmo): N213Q (protein) parent chain: MQYLNFPRMPNIMMFLEVAILCLWVVADASASSAKFGSTTPASAQQSDVELEPINGTLNYRLYAKKGRDDKPWFDGLDSRHIQCVRRARCYPTSNATNTCFGSKLPYELSSLDLTDFHTEKELNDKLNDYYALKHVPKCWAAIQPFLCAVFKPKCEKINGEDMVYLPSYEMCRITMEPCRILYNTTFFPKFLRCNETLFPTKCTNGARGMKFNGTGQCLSPLVPTDTSASYYPGIEGCGVRCKDPLYTDDEHRQIHKLIGWAGSICLLSNLFVVSTFFIDWKNANKYPAVIVFYINLCFLIACVGWLLQFTSGSREDIVCRKDGTLRHSEPTAGENLSCIVIFVLVYYFLTAGMVWFVFLTYAWHWRAMGHVQDRIDKKGSYFHLVAWSLPLVLTITTMAFSEVDGNSIVGICFVGYINHSMRAGLLLGPLCGVILIGGYFITRGMVMLFGLKHFANDIKSTSASNKIHLIIMRMGVCALLTLVFILVAIACHVTEFRHADEWAQSFRQFIICKISSVFEEKSSCRIENRPSVGVLQLHLLCLFSSGIVMSTWCWTPSSIETWKRYIRKKCGKEVVEEVKMPKHKVIAQTWAKRKDFEDKGRLSITLYNTHTDPVGLNFDVNDLNSSETNDISSTWAAYLPQCVKRRMALTGAATGNSSSHGPRKNSLDSEISVSVRHVSVESRRNSVDSQVSVKIAEMKTKVASRSRGKHGGSSSNRRTQRRRDYIAAATGKSSRRRESSTSVESQVIALKKTTYPNASHKVGVFAHHSSKKQHNYTSSMKRRTANAGLDPSILNEFLQKNGDFIFPFLQNQDMSSSSEEDNSRASQKIQDLNVVVKQQEISEDDHDGIKIEELPNSKQVALENFLKNIKKSNESNSNRHSRNSARSQSKKSQKRHLKNPAADLDFRKDCVKYRSNDSLSCSSEELDVALDVGSLLNSSFSGISMGKPHSRNSKTSCDVGIQANPFELVPSYGEDELQQAMRLLNAASRQRTEAANEDFGGTELQGLLGHSHRHQREPTFMSESDKLKMLLLPSK	no change	no change			
Drosophila Smo (dSmo): N213Q,N336Q (protein) parent chain: MQYLNFPRMPNIMMFLEVAILCLWVVADASASSAKFGSTTPASAQQSDVELEPINGTLNYRLYAKKGRDDKPWFDGLDSRHIQCVRRARCYPTSNATNTCFGSKLPYELSSLDLTDFHTEKELNDKLNDYYALKHVPKCWAAIQPFLCAVFKPKCEKINGEDMVYLPSYEMCRITMEPCRILYNTTFFPKFLRCNETLFPTKCTNGARGMKFNGTGQCLSPLVPTDTSASYYPGIEGCGVRCKDPLYTDDEHRQIHKLIGWAGSICLLSNLFVVSTFFIDWKNANKYPAVIVFYINLCFLIACVGWLLQFTSGSREDIVCRKDGTLRHSEPTAGENLSCIVIFVLVYYFLTAGMVWFVFLTYAWHWRAMGHVQDRIDKKGSYFHLVAWSLPLVLTITTMAFSEVDGNSIVGICFVGYINHSMRAGLLLGPLCGVILIGGYFITRGMVMLFGLKHFANDIKSTSASNKIHLIIMRMGVCALLTLVFILVAIACHVTEFRHADEWAQSFRQFIICKISSVFEEKSSCRIENRPSVGVLQLHLLCLFSSGIVMSTWCWTPSSIETWKRYIRKKCGKEVVEEVKMPKHKVIAQTWAKRKDFEDKGRLSITLYNTHTDPVGLNFDVNDLNSSETNDISSTWAAYLPQCVKRRMALTGAATGNSSSHGPRKNSLDSEISVSVRHVSVESRRNSVDSQVSVKIAEMKTKVASRSRGKHGGSSSNRRTQRRRDYIAAATGKSSRRRESSTSVESQVIALKKTTYPNASHKVGVFAHHSSKKQHNYTSSMKRRTANAGLDPSILNEFLQKNGDFIFPFLQNQDMSSSSEEDNSRASQKIQDLNVVVKQQEISEDDHDGIKIEELPNSKQVALENFLKNIKKSNESNSNRHSRNSARSQSKKSQKRHLKNPAADLDFRKDCVKYRSNDSLSCSSEELDVALDVGSLLNSSFSGISMGKPHSRNSKTSCDVGIQANPFELVPSYGEDELQQAMRLLNAASRQRTEAANEDFGGTELQGLLGHSHRHQREPTFMSESDKLKMLLLPSK	decreases	decreases	decreases		
Drosophila Smo (dSmo): N336Q (protein) parent chain: MQYLNFPRMPNIMMFLEVAILCLWVVADASASSAKFGSTTPASAQQSDVELEPINGTLNYRLYAKKGRDDKPWFDGLDSRHIQCVRRARCYPTSNATNTCFGSKLPYELSSLDLTDFHTEKELNDKLNDYYALKHVPKCWAAIQPFLCAVFKPKCEKINGEDMVYLPSYEMCRITMEPCRILYNTTFFPKFLRCNETLFPTKCTNGARGMKFNGTGQCLSPLVPTDTSASYYPGIEGCGVRCKDPLYTDDEHRQIHKLIGWAGSICLLSNLFVVSTFFIDWKNANKYPAVIVFYINLCFLIACVGWLLQFTSGSREDIVCRKDGTLRHSEPTAGENLSCIVIFVLVYYFLTAGMVWFVFLTYAWHWRAMGHVQDRIDKKGSYFHLVAWSLPLVLTITTMAFSEVDGNSIVGICFVGYINHSMRAGLLLGPLCGVILIGGYFITRGMVMLFGLKHFANDIKSTSASNKIHLIIMRMGVCALLTLVFILVAIACHVTEFRHADEWAQSFRQFIICKISSVFEEKSSCRIENRPSVGVLQLHLLCLFSSGIVMSTWCWTPSSIETWKRYIRKKCGKEVVEEVKMPKHKVIAQTWAKRKDFEDKGRLSITLYNTHTDPVGLNFDVNDLNSSETNDISSTWAAYLPQCVKRRMALTGAATGNSSSHGPRKNSLDSEISVSVRHVSVESRRNSVDSQVSVKIAEMKTKVASRSRGKHGGSSSNRRTQRRRDYIAAATGKSSRRRESSTSVESQVIALKKTTYPNASHKVGVFAHHSSKKQHNYTSSMKRRTANAGLDPSILNEFLQKNGDFIFPFLQNQDMSSSSEEDNSRASQKIQDLNVVVKQQEISEDDHDGIKIEELPNSKQVALENFLKNIKKSNESNSNRHSRNSARSQSKKSQKRHLKNPAADLDFRKDCVKYRSNDSLSCSSEELDVALDVGSLLNSSFSGISMGKPHSRNSKTSCDVGIQANPFELVPSYGEDELQQAMRLLNAASRQRTEAANEDFGGTELQGLLGHSHRHQREPTFMSESDKLKMLLLPSK	abolishes	decreases	decreases		
Drosophila Smo (dSmo): dSmoN336Q (protein) parent chain: MQYLNFPRMPNIMMFLEVAILCLWVVADASASSAKFGSTTPASAQQSDVELEPINGTLNYRLYAKKGRDDKPWFDGLDSRHIQCVRRARCYPTSNATNTCFGSKLPYELSSLDLTDFHTEKELNDKLNDYYALKHVPKCWAAIQPFLCAVFKPKCEKINGEDMVYLPSYEMCRITMEPCRILYNTTFFPKFLRCNETLFPTKCTNGARGMKFNGTGQCLSPLVPTDTSASYYPGIEGCGVRCKDPLYTDDEHRQIHKLIGWAGSICLLSNLFVVSTFFIDWKNANKYPAVIVFYINLCFLIACVGWLLQFTSGSREDIVCRKDGTLRHSEPTAGENLSCIVIFVLVYYFLTAGMVWFVFLTYAWHWRAMGHVQDRIDKKGSYFHLVAWSLPLVLTITTMAFSEVDGNSIVGICFVGYINHSMRAGLLLGPLCGVILIGGYFITRGMVMLFGLKHFANDIKSTSASNKIHLIIMRMGVCALLTLVFILVAIACHVTEFRHADEWAQSFRQFIICKISSVFEEKSSCRIENRPSVGVLQLHLLCLFSSGIVMSTWCWTPSSIETWKRYIRKKCGKEVVEEVKMPKHKVIAQTWAKRKDFEDKGRLSITLYNTHTDPVGLNFDVNDLNSSETNDISSTWAAYLPQCVKRRMALTGAATGNSSSHGPRKNSLDSEISVSVRHVSVESRRNSVDSQVSVKIAEMKTKVASRSRGKHGGSSSNRRTQRRRDYIAAATGKSSRRRESSTSVESQVIALKKTTYPNASHKVGVFAHHSSKKQHNYTSSMKRRTANAGLDPSILNEFLQKNGDFIFPFLQNQDMSSSSEEDNSRASQKIQDLNVVVKQQEISEDDHDGIKIEELPNSKQVALENFLKNIKKSNESNSNRHSRNSARSQSKKSQKRHLKNPAADLDFRKDCVKYRSNDSLSCSSEELDVALDVGSLLNSSFSGISMGKPHSRNSKTSCDVGIQANPFELVPSYGEDELQQAMRLLNAASRQRTEAANEDFGGTELQGLLGHSHRHQREPTFMSESDKLKMLLLPSK				increases	
Drosophila Smo (dSmo): dSmoN213Q,N336Q (protein) parent chain: MQYLNFPRMPNIMMFLEVAILCLWVVADASASSAKFGSTTPASAQQSDVELEPINGTLNYRLYAKKGRDDKPWFDGLDSRHIQCVRRARCYPTSNATNTCFGSKLPYELSSLDLTDFHTEKELNDKLNDYYALKHVPKCWAAIQPFLCAVFKPKCEKINGEDMVYLPSYEMCRITMEPCRILYNTTFFPKFLRCNETLFPTKCTNGARGMKFNGTGQCLSPLVPTDTSASYYPGIEGCGVRCKDPLYTDDEHRQIHKLIGWAGSICLLSNLFVVSTFFIDWKNANKYPAVIVFYINLCFLIACVGWLLQFTSGSREDIVCRKDGTLRHSEPTAGENLSCIVIFVLVYYFLTAGMVWFVFLTYAWHWRAMGHVQDRIDKKGSYFHLVAWSLPLVLTITTMAFSEVDGNSIVGICFVGYINHSMRAGLLLGPLCGVILIGGYFITRGMVMLFGLKHFANDIKSTSASNKIHLIIMRMGVCALLTLVFILVAIACHVTEFRHADEWAQSFRQFIICKISSVFEEKSSCRIENRPSVGVLQLHLLCLFSSGIVMSTWCWTPSSIETWKRYIRKKCGKEVVEEVKMPKHKVIAQTWAKRKDFEDKGRLSITLYNTHTDPVGLNFDVNDLNSSETNDISSTWAAYLPQCVKRRMALTGAATGNSSSHGPRKNSLDSEISVSVRHVSVESRRNSVDSQVSVKIAEMKTKVASRSRGKHGGSSSNRRTQRRRDYIAAATGKSSRRRESSTSVESQVIALKKTTYPNASHKVGVFAHHSSKKQHNYTSSMKRRTANAGLDPSILNEFLQKNGDFIFPFLQNQDMSSSSEEDNSRASQKIQDLNVVVKQQEISEDDHDGIKIEELPNSKQVALENFLKNIKKSNESNSNRHSRNSARSQSKKSQKRHLKNPAADLDFRKDCVKYRSNDSLSCSSEELDVALDVGSLLNSSFSGISMGKPHSRNSKTSCDVGIQANPFELVPSYGEDELQQAMRLLNAASRQRTEAANEDFGGTELQGLLGHSHRHQREPTFMSESDKLKMLLLPSK					increases
